Laboratory results: patent US20190077864A1 (ONCOMED PHARMACEUTICALS, published 2019)

Assays:
[1] = molecular target: murine TIGIT (mTIGIT) tagged with FLAG and GFP, on cells (mouse) (UniProt P86176); test: cell-based or functional assay
[2] = molecular target: murine TIGIT (mTIGIT) on B3Z T-cell hybridoma cells (mouse) (UniProt P86176); test: cell-based or functional assay
[3] = molecular target: T1, mouse TIGIT ECD-CD4TM-GFP on HEK-293T cells (mouse, UniProt P86176 29-148); test: flow cytometry of rabbit antibody supernatant on HEK-293T cells transiently transfected with mouse TIGIT ECD-CD4TM-GFP; antibody signal against GFP
T1 construct: The legend names the construct as mouse TIGIT ECD; also called mouse TIGIT-CD4TM-GFP; mTIGIT-CD4TM-GFP; not shown: transmembrane domain of CD4 (CD4TM); GFP (green fluorescent protein)
T1 sequence: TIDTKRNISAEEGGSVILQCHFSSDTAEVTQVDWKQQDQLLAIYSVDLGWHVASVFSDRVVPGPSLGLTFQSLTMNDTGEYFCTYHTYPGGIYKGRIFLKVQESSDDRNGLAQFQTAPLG

hPVR-rbFc fusion protein = molecular target: T2, hPVR-rbFc fusion protein (human, UniProt P15151 21-343); test: flow cytometry of hPVR-rbFc on HEK-293T cells with hTIGIT-CD4TM-GFP, detected with anti-rabbit Fc-PE, no antibody added
T2 construct: extracellular domain; Expressed in CHO cells, purified on protein A; also called human PVR-rabbit Fc fusion protein; not shown: rabbit Fc region
T2 sequence (looked up): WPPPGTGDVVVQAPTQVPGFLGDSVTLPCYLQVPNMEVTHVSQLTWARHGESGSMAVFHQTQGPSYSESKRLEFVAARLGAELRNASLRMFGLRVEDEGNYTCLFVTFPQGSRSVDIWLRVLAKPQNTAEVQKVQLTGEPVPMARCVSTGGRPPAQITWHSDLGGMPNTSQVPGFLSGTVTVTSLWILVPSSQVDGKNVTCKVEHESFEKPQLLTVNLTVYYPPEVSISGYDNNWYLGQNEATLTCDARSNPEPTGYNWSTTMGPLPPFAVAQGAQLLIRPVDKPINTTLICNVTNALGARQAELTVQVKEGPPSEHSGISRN
Description: FIGS. 19A and 19B. FACS analysis of anti-TIGIT antibody blocking binding of human TIGIT to PVR. […] Transfected cells were incubated with soluble human PVR-Fc fusion protein in the presence of antibodies generated to TIGIT (313R19, 313M26, or 313M32) at concentrations of 10, 2, or 0.4 μg/ml or no antibody and analyzed by flow cytometry. Specific binding is indicated by the presence of a diagonal signal within a FACS plot. […] Specific binding is indicated by the presence of a diagonal signal within a FACS plot.
After 16 hours, transfected cells were suspended in ice cold HBSS containing 2% FBS and heparin and incubated on ice with 0.5 μg/ml hPVR-rbFc fusion protein in the presence of anti-TIGIT antibodies 313R19, 313M26, or 313M32 for 60 minutes. Antibody 313R19 is a humanized version of a rabbit anti-TIGIT antibody. 313R19 binds mouse and human TIGIT. The antibodies were tested at concentrations of 10, 2, and 0.4 ug/ml. Cells were incubated without antibody or without hPVR-rbFc as controls. A second incubation with 100 μl PE-conjugated anti-rabbit Fc secondary antibody was performed to detect cells bound by the hPVR-rbFc fusion protein. The cells were analyzed on a FACSCanto instrument (BD Biosciences) and the data was processed using FlowJo software.

[4] = molecular target: T1, mouse TIGIT ECD-CD4TM-GFP on HEK-293T …; test: flow cytometry, 1 µg/ml antibody on transiently transfected HEK-293T cells, PE-conjugated anti-Fc secondary, signal against TIGIT-GFP
Description: The TIGIT variants were evaluated by FACS with anti-hTIGIT antibodies. […] After 16 hours, transfected cells were suspended in ice cold HBSS containing 2% FBS and incubated on ice with 1 μg/ml anti-hTIGIT antibodies 313R12, 313M32, or 313M34 for 30 minutes. 313M34 is an anti-hTIGIT antibody that was generated based upon the amino acid sequences of the 10A7 antibody described in U.S. Publication 2009/0258013. The 10A7 antibody is an anti-mouse TIGIT antibody that binds both mouse TIGIT and human TIGIT. A second incubation with 50 μl PE-conjugated anti-Fc secondary antibody was performed to detect cells bound by the antibodies. The cells were analyzed on a FACSCanto instrument (BD Biosciences) and the data was processed using FlowJo software.

human TIGIT = molecular target: T3, human TIGIT (human, UniProt Q495A1 22-141, limits assumed); test: Biacore, preliminary; format not stated
T3 construct: also called hTIGIT
T3 sequence: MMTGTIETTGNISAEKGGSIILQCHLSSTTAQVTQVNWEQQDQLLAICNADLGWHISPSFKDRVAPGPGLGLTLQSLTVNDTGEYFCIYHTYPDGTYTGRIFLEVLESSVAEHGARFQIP

## murine PVR (mPVR) on cells (ligand)
[1]
  ratio of NK-92 cytotoxicity against 721.221-mPVR cells to that against parental 721.221 cells (calcein release): < 1
[2]
  ratio of IL-2 secretion in response to mPVR-expressing tumor cells to that in response to mPVR-negative tumor cells (ELISA): < 1

B1: anti-TIGIT antibody 313Rb1 (antibody, V domains shown)
VH: QVQLESEGGLFKPTDTLTLTCTVSGSSLSSSYMSWVRQAPGKGLEWIGIIGSNGNTYYANWAKGRFTISKTSTTVELKITSPTTEDTATYFCARGGYRTSGMDPWGPGTLVTVSS
VL: DIVMTQTPASVEVAVGGTVTIKCQASQSISSYLNWYQQKPGQPPKLLIYDALKLASGVPSRFSGSGSGTEYTLTISGVESADAATYYCQQEHSVGNVDNVFGGGTEVVVKR
notes: Rabbit antibody raised against the extracellular domain of mouse TIGIT
[3]
  binding result: binds

B2: hTIGIT-CD4TM-GFP on HEK-293T cells (receptor)
chain: MMTGTIETTGNISAEKGGSIILQCHLSSTTAQVTQVNWEQQDQLLAICNADLGWHISPSFKDRVAPGPGLGLTLQSLTVNDTGEYFCIYHTYPDGTYTGRIFLEVLESSVAEHGARFQIP
notes: Cell surface fusion protein, transiently expressed; also called human TIGIT ECD-CD4TM-GFP; FLAG-hTIGIT-CD4TM-GFP; not shown: transmembrane domain of CD4 (CD4TM); C-terminal GFP protein tag
hPVR-rbFc fusion protein
  binding result: binds

B3: anti-TIGIT antibody 313R12 (antibody, mouse IgG2a, kappa, V domains shown)
VH: QVQLESEGGLFKPTDTLTLTCTVSGSSLSSSYMSWVRQAPGKGLEWIGIIGSNGNTYYANWAKGRFTISKTSTTVELKITSPTTEDTATYFCARGGYRTSGMDPWGPGTLVTVSS
VL: DIVMTQTPASVEVAVGGTVTIKCQASQSISSYLNWYQQKPGQPPKLLIYDALKLASGVPSRFSGSGSGTEYTLTISGVESADAATYYCQQEHSVGNVDNVFGGGTEVVVKR
notes: Chimeric antibody: variable regions of 313Rb1 in a mouse IgG2a format
[4]
  binding result: binds

B4: anti-TIGIT antibody 313R19 (antibody, human IgG1, kappa, V domains shown)
VH: QVQLQESGPGLVKPSETLSLTCTVSGFSLSSSYMSWIRQPPGKGLEWIGIIGSNGNTYYANWAKGRVTISKSSNQVSLKLSSVTAADTAVYYCARGGYRTSGMDPWGQGTLVTVSS
VL: DIQMTQSPSSLSASVGDRVTITCQASQNIYSDLAWYQQKPGKAPKLLIYRASTLASGVPSRFSGSGSGTDFTLTISSLQPEDFATYYCQQEHLVAWIYNVFGQGTKVEIKR
notes: Humanized rabbit antibody, human IgG1
Human TIGIT
  Kd: 2 nM
